Experimental data published in patent US20260151494A1 (ARO BIOTHERAPEUTICS, published 2026).
Residue numbers refer to the chain shown, from its start.

B1: CD71-binding FN3 domain of SEQ ID NO: 451 (designed binder)
chain: MLPAPKNLVVSRVTEDSARLSWTAPDAAFDSFFIGYLEPQPPGEAIGLLVPGSERSYDLTGLKPGTEYNVTIQGVKGGFPSIPLVADFTT
B2: CD71-binding FN3 domain of SEQ ID NO: 452 (designed binder)
chain: B1 chain with G47H, L49Q, D87Q
B3: CD71-binding FN3 domain of SEQ ID NO: 453 (designed binder)
chain: B1 chain with P25Q, G47A, I82H, V85S, D87S
B4: CD71-binding FN3 domain of SEQ ID NO: 454 (designed binder)
chain: B1 chain with G47N, L49T, I82Y, V85Q, D87S
B5: CD71-binding FN3 domain of SEQ ID NO: 456 (designed binder)
chain: B1 chain with G47A, L49Y, I82H, V85Q, D87H
B6: CD71-binding FN3 domain of SEQ ID NO: 457 (designed binder)
chain: B1 chain with G47V, I82A, D87T
B7: CD71-binding FN3 domain of SEQ ID NO: 459 (designed binder)
chain: B1 chain with G35R, G47H, L49S, I82M, V85Y, D87I
B8: CD71-binding FN3 domain of SEQ ID NO: 460 (designed binder)
chain: B1 chain with G47S, L49Y, L59Q, I82D, V85S, D87R
B9: CD71-binding FN3 domain of SEQ ID NO: 461 (designed binder)
chain: B1 chain with L49F, I82M, V85S, A86P, D87I
B10: CD71-binding FN3 domain of SEQ ID NO: 462 (designed binder)
chain: B1 chain with G47H, L49Q, I82V, V85H, D87R
B11: CD71-binding FN3 domain of SEQ ID NO: 464 (designed binder)
chain: B1 chain with G47Q, L49F, I82T, D87S
B12: CD71-binding FN3 domain of SEQ ID NO: 465 (designed binder)
chain: B1 chain with G47D, L49Y, I82E, V85W
B13: CD71-binding FN3 domain of SEQ ID NO: 467 (designed binder)
chain: B1 chain with G47Q, I82D, D87Y, F88S
B14: CD71-binding FN3 domain of SEQ ID NO: 469 (designed binder)
chain: B1 chain with G47H, L49Y, I82L, D87T
B15: CD71-binding FN3 domain of SEQ ID NO: 470 (designed binder)
chain: B1 chain with G47T, I82M, V85S, D87I
B16: CD71-binding FN3 domain of SEQ ID NO: 472 (designed binder)
chain: B1 chain with G47E, L49Y, I82L, D87T
B17: CD71-binding FN3 domain of SEQ ID NO: 473 (designed binder)
chain: B1 chain with G47D, L49W, I82L, V85S, D87S
B18: CD71-binding FN3 domain of SEQ ID NO: 474 (designed binder)
chain: B1 chain with L49A, I82E, V85I
B19: CD71-binding FN3 domain of SEQ ID NO: 475 (designed binder)
chain: B1 chain with G47T, L49Y, V85S, D87E
B20: CD71-binding FN3 domain of SEQ ID NO: 476 (designed binder)
chain: B1 chain with G47H, L49Q, V85I, D87V
B21: CD71-binding FN3 domain of SEQ ID NO: 478 (designed binder)
chain: B1 chain with G47H, L49Y, I82V, V85I, D87K
B22: CD71-binding FN3 domain of SEQ ID NO: 479 (designed binder)
chain: B1 chain with G47N, L49W, I82T, V85F, D87G
B23: CD71-binding FN3 domain of SEQ ID NO: 481 (designed binder)
chain: B1 chain with G47T, L49Y, L59M, I82L, V85Q, D87H
B24: CD71-binding FN3 domain of SEQ ID NO: 482 (designed binder)
chain: B1 chain with V9I, G47H, L49Q, I82N, V85H, D87E
B25: CD71-binding FN3 domain of SEQ ID NO: 483 (designed binder)
chain: B1 chain with G47T, L49V, I82D, D87S
B26: CD71-binding FN3 domain of SEQ ID NO: 485 (designed binder)
chain: B1 chain with G47H, L49W, I82L, V85L, D87K
B27: CD71-binding FN3 domain of SEQ ID NO: 486 (designed binder)
chain: B1 chain with K6E, P25L, G47S, F79I, P80A, I82E, V85S, D87A
B28: CD71-binding FN3 domain of SEQ ID NO: 487 (designed binder)
chain: B1 chain with L49R, I82E, V85I
B29: CD71-binding FN3 domain of SEQ ID NO: 490 (designed binder)
chain: B1 chain with G47S, L49Q, I82A, D87N
B30: CD71-binding FN3 domain of SEQ ID NO: 491 (designed binder)
chain: B1 chain with P42S, G47H, L49I, I82D, D87S
B31: CD71-binding FN3 domain of SEQ ID NO: 493 (designed binder)
chain: B1 chain with G47L, L49A, I82L, D87H
B32: CD71-binding FN3 domain of SEQ ID NO: 494 (designed binder)
chain: B1 chain with A24T, G47S, L49Y, I82M, V85S, D87I
B33: CD71-binding FN3 domain of SEQ ID NO: 496 (designed binder)
chain: B1 chain with G47I, L49W, I82V, V85I, D87Q
B34: CD71-binding FN3 domain of SEQ ID NO: 497 (designed binder)
chain: B1 chain with G47T, I82K, V85Y, D87Y
B35: CD71-binding FN3 domain of SEQ ID NO: 498 (designed binder)
chain: B1 chain with G47I, L49W, V85I, D87V
B36: CD71-binding FN3 domain of SEQ ID NO: 499 (designed binder)
chain: B1 chain with G47S, L49Y, I82S, V85F
B37: CD71-binding FN3 domain of SEQ ID NO: 500 (designed binder)
chain: B1 chain with G47D, I82M, V85S, D87I
B38: CD71-binding FN3 domain of SEQ ID NO: 501 (designed binder)
chain: B1 chain with G47S, I82V, V85S, D87I
B39: CD71-binding FN3 domain of SEQ ID NO: 502 (designed binder)
chain: B1 chain with L49H, V85E, D87K
B40: CD71-binding FN3 domain of SEQ ID NO: 504 (designed binder)
chain: B1 chain with L49V, I82H, V85G, D87I

Assays:
[1] = molecular target: T1, human CD71 extracellular domain (human, UniProt P02786 89-760, biotinylated); experiment: primary ELISA, RLU over HSA
T1 construct: also called hCD71; CD71-ECD

[2] = molecular target: T2, apical domain of human CD71 (human, UniProt P02786 189-383, limits assumed); experiment: primary ELISA, RLU over HSA
T2 construct: domain: apical domain; Screen 4 panned on human apical domains, the ELISA text says only 'apical domain'

[3] = molecular target: T1, human CD71 extracellular domain; experiment: primary ELISA; note: test concentration or dose not given here
[4] = molecular target: T2, apical domain of human CD71; experiment: primary ELISA; note: test concentration or dose not given here

T1 sequence (P02786 89-760): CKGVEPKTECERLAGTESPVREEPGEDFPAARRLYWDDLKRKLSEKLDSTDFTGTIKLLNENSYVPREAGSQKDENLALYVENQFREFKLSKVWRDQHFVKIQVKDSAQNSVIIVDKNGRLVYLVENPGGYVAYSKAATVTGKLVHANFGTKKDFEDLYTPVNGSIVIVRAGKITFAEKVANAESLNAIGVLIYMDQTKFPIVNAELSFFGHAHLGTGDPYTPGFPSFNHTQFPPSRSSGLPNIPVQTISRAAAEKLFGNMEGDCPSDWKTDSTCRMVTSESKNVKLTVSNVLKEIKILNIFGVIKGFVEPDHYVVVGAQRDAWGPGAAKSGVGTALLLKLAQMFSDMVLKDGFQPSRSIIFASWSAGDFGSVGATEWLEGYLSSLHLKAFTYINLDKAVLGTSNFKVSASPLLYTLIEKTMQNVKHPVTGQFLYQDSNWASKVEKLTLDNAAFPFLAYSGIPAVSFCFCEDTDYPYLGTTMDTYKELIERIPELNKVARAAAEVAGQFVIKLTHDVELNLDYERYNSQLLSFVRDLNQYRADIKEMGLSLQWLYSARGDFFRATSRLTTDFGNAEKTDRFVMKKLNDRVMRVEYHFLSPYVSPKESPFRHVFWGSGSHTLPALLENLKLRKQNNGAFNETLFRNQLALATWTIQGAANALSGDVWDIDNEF
T2 sequence (P02786 189-383 limits assumed): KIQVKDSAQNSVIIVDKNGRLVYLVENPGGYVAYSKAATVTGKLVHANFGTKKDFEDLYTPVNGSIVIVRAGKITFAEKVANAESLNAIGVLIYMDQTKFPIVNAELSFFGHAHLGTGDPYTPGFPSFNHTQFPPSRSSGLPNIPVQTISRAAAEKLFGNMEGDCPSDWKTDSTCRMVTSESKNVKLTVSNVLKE

Binder	hCD71:HSA [1]	Apical domain:HSA [2]	RLU [3]	RLU [4]
B1	129	151	5.23e+06 RLU	6.08e+06 RLU
B2	88	71	5.24e+06 RLU	4.23e+06 RLU
B3	142	147	4.95e+06 RLU	5.12e+06 RLU
B4	226	227	4.18e+06 RLU	4.2e+06 RLU
B5	302	289	4.5e+06 RLU	4.31e+06 RLU
B6	51	53	5.54e+06 RLU	5.78e+06 RLU
B7	191	199	2.5e+06 RLU	2.61e+06 RLU
B8	143	148	2.69e+06 RLU	2.8e+06 RLU
B9	117	166	3.77e+06 RLU	5.35e+06 RLU
B10	76	88	2.83e+06 RLU	3.28e+06 RLU
B11	140	160	4.94e+06 RLU	5.68e+06 RLU
B12	129	138	3.86e+06 RLU	4.15e+06 RLU
B13	27	45	1.18e+06 RLU	2e+06 RLU
B14	73	75	5.4e+06 RLU	5.56e+06 RLU
B15	79	152	2.47e+06 RLU	4.74e+06 RLU
B16	162	178	4.52e+06 RLU	4.97e+06 RLU
B17	88	91	2.91e+06 RLU	3.03e+06 RLU
B18	312	279	3.04e+06 RLU	2.72e+06 RLU
B19	101	94	3.46e+06 RLU	3.21e+06 RLU
B20	262	215	4.15e+06 RLU	3.4e+06 RLU

Binder	hCD71:HSA [1]	Apical domain:HSA [2]	RLU [3]	RLU [4]
B21	56	61	5.39e+06 RLU	5.9e+06 RLU
B22	206	373	2.66e+06 RLU	4.83e+06 RLU
B23	816	803	3.71e+06 RLU	3.65e+06 RLU
B24	247	295	2.23e+06 RLU	2.66e+06 RLU
B25	136	154	3.05e+06 RLU	3.47e+06 RLU
B26	66	86	2.47e+06 RLU	3.23e+06 RLU
B27	297	335	1.75e+06 RLU	1.98e+06 RLU
B28	146	220	2.27e+06 RLU	3.43e+06 RLU
B29	403	281	4.15e+06 RLU	2.9e+06 RLU
B30	265	288	4.66e+06 RLU	5.07e+06 RLU
B31	190	172	2.75e+06 RLU	2.5e+06 RLU
B32	356	369	3.2e+06 RLU	3.32e+06 RLU
B33	43	47	5.27e+06 RLU	5.66e+06 RLU
B34	229	358	2.93e+06 RLU	4.58e+06 RLU
B35	113	112	5.7e+06 RLU	5.67e+06 RLU
B36	132	148	2.78e+06 RLU	3.13e+06 RLU
B37	147	169	2.95e+06 RLU	3.39e+06 RLU
B38	399	606	3.21e+06 RLU	4.88e+06 RLU
B39	141	222	1.49e+06 RLU	2.34e+06 RLU
B40	78	172	1.22e+06 RLU	2.68e+06 RLU
